The supplement of paper PMC9170038

System: MS2 coat protein
Assay: apparent KD of MS2 coat protein; designed switch direction (-1 OFF switch, 1 ON switch): -1; higher = weaker reporter binding
Method in brief: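 Designed RNA switches with common flanks were transcribed on Illumina chips by stalled E. coli RNA polymerase and titrated with SNAP-549-labelled MS2 coat protein, from 0.7 or 1.5 nM doubling to 3 µM, in Tris-HCl pH 7.5 buffer with KCl, MgCl2, BSA, DTT, tRNA and Tween-20. Steps lasted 0.8–1.5 h (lowest) to 10–20 min (highest). Titrations ran without input, with 200 uM small-molecule ligand, or with an oligonucleotide input. Normalised cluster fluorescence was curve-fitted, and apparent KD is the per-design median over clusters.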

[1] = Eterna round: R95, input ligand: FMN 200 uM
[2] = Eterna round: R95, input ligand: microRNA oligo, concentration not stated
[3] = Eterna round: R95, input ligand: none
[4] = input ligand: microRNA oligo, concentration not stated

| Sequence | apparent KD of MS2 coat protein [1] [nM] | apparent KD of MS2 coat protein [2] [nM] | apparent KD of MS2 coat protein [3] [nM] | apparent KD of MS2 coat protein (input ligand: FMN 200 uM) [nM] | apparent KD of MS2 coat protein [4] [nM] | apparent KD of MS2 coat protein (input ligand: none) [nM] |
| --- | --- | --- | --- | --- | --- | --- |
| AGUAACCGUCACGAAAGUGAUGGUUACACAAGCAAAUGUACAUGAGGAUCACCCAUGUCCUCAUUUGCUCGUCUUGU [Sensor 3 - 48] (puzzle: Sensor v3, turn-off variant 2) | 101 | 398 | 121 |  |  |  |
| GUAAUUAAUGUAGGAUAUGCAAGGCGAACCUAAGCAGAAGGACAUGAGGAUCACCCAUGUAUUGCGGUCUGCGUUCAGUUCGCU [salish99_ExNG1_r4_011] (Eterna round: R96, puzzle: Exclusion NG 1) |  |  |  | 9.41 | 6.39 | 10.2 |
| CUCACGCUCGAGGAUAUCGCACAAAACAAUCAACGAGAAGGCGAGACAUGAGGAUCACCCAUGUGUGGUCAAGA [Ceceed] (Eterna round: R97, puzzle: Exclusion 6) |  |  |  | 80.9 |  | 590 |
| GAGUUAGCGUGAGGAAUAUACAUGAGGAUCACCCAUGUUAGCUUAUAUAUUGCUCGUCUUAUAACAACAAUUAACUG [Mod JX-Electric-eye2] (Eterna round: R97, puzzle: Sensor, turn-off variant 1) |  |  |  | 25.4 |  | 27.2 |
| CUAGUAUAUCAGGAUAUGAUUUUGUGUAGUUAAUCAGAAGGGAUGACAUGAGGAUCACCCAUGUUAAGGGAUGA [JR_Ex6_Sub046] (Eterna round: R97, puzzle: Exclusion 6) |  |  |  | 324 |  | 83.3 |
| AAGGAUAGAGGAUAUACAUAGAUACAGAUUCAUGUGGAACUACAUGAGGAUCACCCAUGUAGAAGGCUAUCCUA [Fiskers Ex 2 - 9] (puzzle: Exclusion 2) |  | 35.9 |  |  |  |  |
| GAUUAACAUGAGGAUCACCCAUGUGAGGAUAUGGAAUGGCUCAUUGUCUGAUUUCCUUCUAGAAGGCACAUCUU [1986#4c] (Eterna round: R97, puzzle: Exclusion 1) |  |  |  | 72.2 |  | 63.3 |
| GGAAUACAUGAGGAUCACCCAUGUAAGGAUAUGCUGAAUAACACGGAAUUAACGUGCAGCAGAAGGUACAAAUG [Mat - Mod of my Eli Mod D44] (puzzle: Exclusion 1) | 105 | 112 | 93.2 |  |  |  |
| UCUCGCUGGCGAGGAUAUCCUGUGCGGUUCCGGCUCGUGUCUGUUACAUGAGGAUCACCCAUGUGGGAGAAGGUGUCUGUGGCC [Design 96] (Eterna round: R96, puzzle: Exclusion NG 2) |  |  |  | 16.7 | 15.4 | 18.8 |
| CAUUAACAUGAGGAUCACCCAUGUGAGGAUAUGGAUACAUAAUACUACUACAUAAAUACCAGAAGGCGCAUACU [Maybaline] (puzzle: Exclusion 1) | 31.4 | 28 | 55.1 |  |  |  |
| UUUAGUCGUGACAUGGGUGACAUGAGGAUCACCCAUGUUACAAGCUUGUUGCUCGUCUUAUAAUUAACCCAUGUCAC [LRO Sensor-off var1-16 mod of Stov1-13-A1 by Brourd] (Eterna round: R97, puzzle: Sensor, turn-off variant 1) |  |  |  | 13.5 |  | 17.2 |
| AGCAAGUCAGGAUAUCAAAGCAGCUAUAUGCUGCCCGGGCUUGAGAAGGGACUUGAGGAUCACCCAAGUGAUAG [Titiar] (Eterna round: R97, puzzle: Exclusion 4) |  |  |  | 101 |  | 25.1 |
| AAACAAAAGGCAGGAUAUCCUCGUCAACACCACAAGUCCACUCGGACAUGAGGAUCACCCAUGUAGGAGAAGGGCCAGAAAUAC [Bevearla] (Eterna round: R96, puzzle: Exclusion NG 2) |  |  |  | 88.8 | 17.5 | 19.6 |
| AAUAAUUGUGACUUGGGUGACAUGAGGAUCACCCAUGUCACAAGCUUGUUGCUCGCCUUGUAAUUAACCCAUGUCAC [LRO Sensor-off var1-27 mod of Stov1-13-A1 by Brourd] (Eterna round: R97, puzzle: Sensor, turn-off variant 1) |  |  |  | 22.2 |  | 20.8 |
| GGGAAGGGAGGAUAUGAGGGAGAGAACAUGAGGAUCACCCAUGUGAGACCUCAGGAUCGAUCAGAAGGCCCGACCC [AK-MS2ROC-r4-exclusion5-13.1] (Eterna round: R97, puzzle: Exclusion 5) |  |  |  | 824 |  | 92.2 |
| AUGUGACAUGAGGAUCACCCAUGUCAGGAUAUUUCCAAAAUAAAAUAAAACCGCGUGGAAAGAAGGGACGUGGU [EX1 A.8] (Eterna round: R97, puzzle: Exclusion 1) |  |  |  | 23.4 |  | 21.7 |
| CCAGCAAAUGUAAGGAUAUGCUGGUCCUUGGAUCAGCAGAAGGUACAUGAGGAUCACCCAUGUAGGUAAGCUGG [Eli bmx4 4.63] (Eterna round: R97, puzzle: Brourd's mod of Exclusion 4) |  |  |  | 118 |  | 23.5 |

| Sequence | apparent KD of MS2 coat protein [1] [nM] | apparent KD of MS2 coat protein [2] [nM] | apparent KD of MS2 coat protein [3] [nM] | apparent KD of MS2 coat protein (input ligand: FMN 200 uM) [nM] | apparent KD of MS2 coat protein [4] [nM] | apparent KD of MS2 coat protein (input ligand: none) [nM] |
| --- | --- | --- | --- | --- | --- | --- |
| UUUAGUCGUGACAUGGGUGACAUGAGGAUCACCCAUGUCACAAGCUUCUCGCUCGUCUUAUAAUUAACCCAUGUCAC [LRO Sensor-off var1-14 mod of Stov1-13-A1 by Brourd] (Eterna round: R97, puzzle: Sensor, turn-off variant 1) |  |  |  | 18.6 |  | 19.8 |
| AGAUAACAUGAGGAUCACCCAUGUGAGGAUAUUUACCCAAGAGCUUCGGCUCUCAGGUGAAGAAGGCACGUUGA [EX1 #59] (Eterna round: R97, puzzle: Exclusion 1) |  |  |  | 109 |  | 55.4 |
| UUCGCGGAAGGAUAUACAUGAGGAUCACCCAUGUGCUUAUGCGCAACAGCUUCGCAGUGUAGAAGGUUCAGAGU [Eternabot (L1) Solution 3] (Eterna round: R97, puzzle: Exclusion 3) |  |  |  | 18.9 |  | 23.4 |
| AACAGCACAGGAUAUACAUGAGGAUCACCCAUGUGAGAAUUAAGUGGCGUACCACAAAGUAGAAGGGUGCUGGA [Mat - Exclusion 3 - JL mod - D39] (Eterna round: R96, puzzle: Exclusion 3) |  |  |  |  | 36 |  |
| UCGUUCCGUGUAGGAUAUUGGCCUUCUCUGGGCCGAGAAGGACAUGAGGAUCACCCAUGUAUGUUAUUAUCACGCGUGGCGCAU [Design 84] (Eterna round: R96, puzzle: Exclusion NG 1) |  |  |  | 181 | 22.9 | 25.1 |
| ACAAGAUCGGAAGGAUAUUGUACAUGAGGAUCACCCAUGUAAUAAAUGAGGAUCACGGAUGUAGACAAGAAGGUCCGGAUAAGA [Ostracism 4 - Jieux - Exclusion NG 2] (Eterna round: R96, puzzle: Exclusion NG 2) |  |  |  | 45.6 | 30.8 | 36.2 |
| ACAUGUUAUGUAGGAUAUUGGACACAUGAGGAUCACCCAUGUACCCGGAGGCUUUACUAUGAGUUCGAGAAGGGUAUGAACAUG [Ex NG2 #68] (Eterna round: R96, puzzle: Exclusion NG 2) |  |  |  | 39.8 | 21.1 | 29.4 |
| GGUCCGAGUGUGAGGAUAUGCUGGUCCUUGGAUCAGCAGAAGGCACAUGAGGAUCACCCAUGUGAAGACGGACC [Mat - Exclusion 4 - Eli Mod - D30] (Eterna round: R97, puzzle: Brourd's mod of Exclusion 4) |  |  |  | 537 |  | 91.5 |
| AGGGAUAAAGGAUAUACAUGAGGAUCACCCAUGUUGAGGAAAGUGAGAUGAGGAGGAAGUAGAAGGUUAGGCGA [JR_Exclu3_Sub085] (puzzle: Exclusion 3) | 37.2 | 37.7 | 47.4 |  |  |  |
| CACCGUUACAGAGGAUAUGACACAUGAGGAUCACCCAUGUAAUAAAUGAGAAUUUCGAAUGUACCUCAGAAGGCUGGAACCGGC [Ostricism 78 - Jieux - Exclusion NG 2] (Eterna round: R96, puzzle: Exclusion NG 2) |  |  |  | 61.2 | 31.5 | 38.7 |
| UCGUUCCGUGUAGGAUAUUGGUCUCCCUCGGGCCGAGAAGGACAUGAGGAUCACCCAUGUAUGUUAUUAUCGCGCGUGGCGCAU [Design 90] (Eterna round: R96, puzzle: Exclusion NG 1) |  |  |  | 29.5 | 17.8 | 24.1 |
| ACGCCUAUAGUGAGGAUAUUGCGGGUAGGUAUUUGCAAGAAGGCACUUGAGGAUCACCCAAGUGAAGAAGUUGC [Geusra] (Eterna round: R97, puzzle: Brourd's mod of Exclusion 4) |  |  |  | 14.7 |  | 15.1 |
| CAGGAUAGAGGAUAUACAUAGAUACAGAUUCAUGUGAUCCUACAUGAGGAUCACCCAUGUAGAAGGCUAACCUG [Fiskers Ex 2 - 24] (puzzle: Exclusion 2) |  | 306 |  |  |  |  |
| GAAAAGUAAGGAUAUGUCCACAGUGAGGAAACUCACUGUGGACAGAAGGUACAUGAGGAUCACCCAUGUUCCUC [ExDelusion 4 - Jieux - Exclusion 4] (Eterna round: R97, puzzle: Exclusion 4) |  |  |  | 577 |  | 44.2 |
| AAUGCCAGUGUCAGGAUAUCCGGAGGGAAACCUCCGGAGAAGGGACAUGAGGAUCACCCAUGUAUGUAACCUGC [AK-MS2ROC-r4-Bmoexclusion4-7] (Eterna round: R97, puzzle: Brourd's mod of Exclusion 4) |  |  |  | 35.2 |  | 23.6 |
| GUCGUACAUGAGGAUCACCCAUGUGAGGAUAUGAGUGGUGCUGCUAGGUAGUAUAGACUCAGAAGGCGCAUGAU [Malcxlusion 2 - Jieux - Exclusion 1] (Eterna round: R97, puzzle: Exclusion 1) |  |  |  | 250 |  | 91.5 |
